Substrate: O=C1O[C@H]([C@@H](O)CO)C(O)=C1O
Experiment: steady-state Michaelis-Menten kinetics
Assay type: biochemical, Populus tomentosa
Settings: fixed H2O2 concentration
From the text: steady-state Michaelis-Menten kinetics on PtosAPX

B1: PtosAPX (Populus tomentosa) (protein)
chain: ASDAAQLKSAREDIKELLKSKFCHPILVRLGWHDAGTYNKNIEEWAKRGGANGSLRFEIELKHAANAGLVDALKLIQPIKDKYSGVTYADLFQMASATAIEEAGGPKIPMKYGRVDVSVPDECPEEGRLPDAGPPKPADHLRGVFYRMGLDDKEIVALSGAHTLGRSRPERSGWGKPETKYTKNGPGAPGGQSWTAEWLKFDNSYFKDIKERKDEDLLVLPTDAALFEDPSFKVYAEKYAEDKEAFFKDYAEAHAKLSNLGAKFDPPEGIMLDGVAGEKFVAAKYSSGKD
notes: ORF minus N-terminal targeting peptide, pET30a, E. coli, purified; 39 kDa on SDS-PAGE; full ORF 1,086 bp; homologue of P. trichocarpa JGI 209946
B1 showed a Km of 4.30 ± 1.81 mM, a Vmax of 850 µM/min and a kcat of 15000 s⁻¹. It also gave a kcat/Km of 3.48e+06 M⁻¹ s⁻¹.
